The source of these data is the DeepSol protein solubility set.

A short description of the data set: soluble on expression in E. coli; label from the status in PepcDB or PDB records.
As to “TVEAKNETFAPQHPDQYLSWKATSEQSERVDALAEDPRLVILWAGYPFSRDYNKPRGHAFAVTDVRETLRTGAPKNAEDGPLPMACWSCKSPDVARLIQKDGEDGYFHGKWARGGPEIVNNLGCADCHNTASPEFAKGKPELTLSRPYAARAMEAIGKPFEKAGRFDQQSMVCGQCHVEYYFDGKNKAVKFPWDDGMKVENMEQYYDKIAFSDWTNSLSKTPMLKAEHPEYETWTAGIHGKNNVTCIDCHMPKVQNAEGKLYTDHKIGNPFDNFAQTCANCHTQDKAALQKVVAERKQSINDLKIKVEDQLVHAHFEAKAALDAGATEAEMKPIQDDIRHAQWRWDLAIASHGIHMHAPEEGLRMLGTAMDKAADARTKLARLLATKGITHEIQIPDISTKEKAQQAIGLNMEQIKAEKQDFIKTVIPQWEEQARKNGLLS”, the “soluble on expression in E. coli” value was “soluble”.

“MSLTASPIVVFDLDGTLIDTAPDLINALNFILVREGMPAVPMAVARNMIGQGARRLLERGLELDGRVIAQDDVNRLTVDFIDYYAAHIADESRPFEGLEATLDELSESGYRFAVCTNKLEWLSKLLLDRLGLSPRFAAICGADTFGVAKPDPAILRETVAKAGGDLSAAIMVGDAGPDVGVARRAGVPVIGVEFGYTEVPIAELQPDLLVGHMRELPNAVGRLLPRREGHHHHHH”: the “soluble on expression in E. coli” value was “soluble”.

Take “MQATLIKPTIFTHQPILEKLFKSQSMTQEESHQLFAAIVRGELEDSQLAAALISMKMRGERPEEIAGAASALLADAQPFPRPDYDFADIVGTGGDGTNSINISTASAFVAASCGAKVAKHGNRSVCQPLAGSCDLLQAFGIRLDMSAEDSRQALDDLNVCFLFAPQYHTGFRHAMPVRQQLKTRTIFNVLGPLINPARPPKALIGVYSPELVLPIAQALKVLGYKNAAVVHGGGMDEVAIHTPTQVAELNNGEIESYQLSPQDFGLQSYSLNALQGGTPEENRDILARLLQGKGDAAHARQVAANVALLLKLFGQDNLRHNAQLALETIRSGTAFERVTALAARG”: the “soluble on expression in E. coli” value is reported as “soluble”.

With “MSALAVALARQSESHADCPLFNDPYAQVFIDAALSRGCQLPSDETSERINGIANYASSRTKWFDEYFIAAGAHGLEQMVIVAAGLDARAWRLPWVAGTTLFEIDHPGVLKFKNEALHEHGESPSVSRYVPVPADLSDGWSERLRDAGFDVSEPTAWAVEGLLPYVADGPHLLFDRIHEISPAGSRLAVEAVGTGVADWLSTQGWQVTMIGAQELMTRYGRCGDHSDTDAGMDTVFVNATRTR”, the “soluble on expression in E. coli” value is reported as “soluble”. For “MGSDKIHHHHHHMDYNQTVLSHLQKFWKHHDIKGFTWTLGRIVEELPDFQVFQVIPNHEDEPWVYVSSGIGQFLGQEFFIISPFETPEHIETLAMLASASMHYPDQFQLGKTVNIGRPWVEQSSFRHFLISLPYPYGQELEYMDNVRFFWLLPITQTERLFLNTHSVEELETKFDEAGIDYLDINRASTVWQAG”, the “soluble on expression in E. coli” value is “not soluble”. On to “MKRFFLFILPVLLVITACKAPEEIVLPDKNLNVADRTIVYKKEPYTGKLVLPKSPRGNEGYMYVKDGHLEGNAEIKNEKDGFLLKYNINAGKFQGELLYKSGDGQLTLNVDKGVILSMQMSNDKEKTEYNFTFTDGLANGVFRHENKKNTAEIVFTDGMAKIENDGNIDVEAKFSINQNTWMITMESFVDGKSYSKTEKFLGINLETIEDIVFSSIEDYKTQK”, for which the “soluble on expression in E. coli” value was “not soluble”. Then “MTDEFKKSTANLKKAVPLMIKNHVAATPANYALWYTYVDKTIPELNFEMDEVLEHYGICPPAANKQLYNNYVASRAETSLEDLKTNVEVLLHEVSSSMSDTLSDTSSFSAMVDKSFNKLEKVEDNSLSIEEVMVVIRQLVAESHEIRHSTKFLNRQLTNASEEISR”, with “not soluble”; and “GLSAAQRQVVASTWKDIAGSDNGAGVGKECFTKFLSAHHDMAAVFGFSGASDPGVADLGAKVLAQIGVAVSHLGDEGKMVAEMKAVGVRHKGYGNKHIKAEYFEPLGASLLSAMEHRIGGKMNAAAKDAWAAAYADISGALISGLQS”, with “soluble”.
